In this assay the target is recombinant human PCSK9, V5-, His-tagged (human, UniProt Q8NBP7 31-692). In words: cell-based or functional assay.
Chain of recombinant human PCSK9, V5-, His-tagged (Q8NBP7 31-692 limits assumed): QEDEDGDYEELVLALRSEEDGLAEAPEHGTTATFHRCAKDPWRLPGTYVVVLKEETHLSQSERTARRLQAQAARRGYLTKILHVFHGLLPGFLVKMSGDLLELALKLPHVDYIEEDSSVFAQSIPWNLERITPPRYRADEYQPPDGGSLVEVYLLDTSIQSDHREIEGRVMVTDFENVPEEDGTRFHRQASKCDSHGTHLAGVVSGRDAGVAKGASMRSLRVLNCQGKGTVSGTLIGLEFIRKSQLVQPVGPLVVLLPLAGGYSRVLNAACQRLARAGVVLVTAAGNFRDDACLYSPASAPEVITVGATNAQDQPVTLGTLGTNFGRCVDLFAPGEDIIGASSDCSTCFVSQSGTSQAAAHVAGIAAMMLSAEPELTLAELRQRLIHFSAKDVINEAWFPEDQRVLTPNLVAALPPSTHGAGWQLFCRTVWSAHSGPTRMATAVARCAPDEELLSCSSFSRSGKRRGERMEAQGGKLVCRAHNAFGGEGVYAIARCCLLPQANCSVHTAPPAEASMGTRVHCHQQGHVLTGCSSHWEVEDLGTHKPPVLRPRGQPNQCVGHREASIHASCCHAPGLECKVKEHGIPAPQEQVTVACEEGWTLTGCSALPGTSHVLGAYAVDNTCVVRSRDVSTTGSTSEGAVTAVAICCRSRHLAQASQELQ

B1: 3CX3D02 (Fab, V domains shown)
VH: QVQLVQSGAEVKKPGESLKISCKGSGYSFTNSWIGWVRQMPGKGLEWMGIIYPSDSYTIYSPSFQGQVTISADKSISTAYLQWSSLKASDTAMYYCARGGGYYYALMDVWAQGTLVTVSS
VL: DIQMTQSPSSLSASVGDRVTITCRASQTISTWLNWYQQKPGKAPKLLIYAASSLQSGVPSRFSGSGSGTDFTLTISSLQPEDFATYYCLQDSSLPLTFGQGTKVEIKR
As for B1, the “IC50, Exopolar assay: reversal of PCSK9-dependent loss of cellular diI-LDL uptake, Fab titrated against fixed PCSK9 (25 µg/ml)” value worked out at 269 nM.

Source of the values: patent US20130189278A1 (Merck Sharp & Dohme, published 2013).
